Laboratory results published in patent publication US20240117018A1.

Key:
Test in all cases: cell-based or functional assay
[1] = target: Q769.d22 Env pseudovirus (HIV-1)
[2] = target: CNE20 Env pseudovirus (HIV-1)
[3] = target: Ce1176_A3 Env pseudovirus (HIV-1)
[4] = target: CAP210.2.00.E8 Env pseudovirus (HIV-1)
[5] = target: Du172.17 Env pseudovirus (HIV-1)
[6] = target: ZM247v1(Rev-) Env pseudovirus (HIV-1)
[7] = target: Ce2060_G9 Env pseudovirus (HIV-1)
[8] = target: Q259.d2.17 Env pseudovirus (HIV-1)
[9] = target: Du156.12 Env pseudovirus (HIV-1)
[10] = target: 6240_08_TA5_4622 Env pseudovirus (HIV-1)
[11] = target: QH0692.42 Env pseudovirus (HIV-1)
[12] = target: CNE19 Env pseudovirus (HIV-1)
[13] = target: WITO4160.33 Env pseudovirus (HIV-1)
[14] = target: ZM233M.PB6 Env pseudovirus (HIV-1)
[15] = target: 1054_07_TC4_1499 Env pseudovirus (HIV-1)
[16] = target: T257-31 Env pseudovirus (HIV-1)
[17] = target: THRO4156.18 Env pseudovirus (HIV-1)
[18] = target: ZM135M.PL10a Env pseudovirus (HIV-1)
[19] = target: WEAU_d15_410_787 Env pseudovirus (HIV-1)
[20] = target: Q23.17 Env pseudovirus (HIV-1)
[21] = target: Ce2010_F5 Env pseudovirus (HIV-1)
[22] = target: CNE30 Env pseudovirus (HIV-1)
[23] = target: CNE53 Env pseudovirus (HIV-1)
[24] = target: 9004SS_A3_4 Env pseudovirus (HIV-1)
[25] = target: 249M B10 Env pseudovirus (HIV-1)
[26] = target: ZM249M.PL1 Env pseudovirus (HIV-1)
[27] = target: CNE17 Env pseudovirus (HIV-1)
[28] = target: HIV-16055-2.3 Env pseudovirus (HIV-1)
[29] = target: AC10.0.29 Env pseudovirus (HIV-1)
[30] = target: 7030102001E5(Rev-) Env pseudovirus (HIV-1)
[31] = target: 1006_11_C3_1601 Env pseudovirus (HIV-1)
[32] = target: 62357_14_D3_4589 Env pseudovirus (HIV-1)
[33] = target: Ce0393_C3 Env pseudovirus (HIV-1)
[34] = target: TRO.11 Env pseudovirus (HIV-1)
[35] = target: HIV-1 Env pseudovirus 928-28 (HIV-1)
[36] = target: HIV-1 Env pseudovirus 3365.v2.c2 (HIV-1)
[37] = target: Env of HIV-1 pseudovirus 3415.v1.c1 (HIV-1)

PGT121 (antibody)
IC50 [1]: > 50 µg/mL | IC80 [1]: > 50 µg/mL | IC50 [2]: < 0.001 µg/mL | IC80 [2]: 0.002 µg/mL | IC50 [3]: 0.013 µg/mL | IC80 [3]: 0.035 µg/mL | IC50 [4]: 26.3 µg/mL | IC80 [4]: > 50 µg/mL | IC50 [5]: 0.033 µg/mL | IC80 [5]: 0.257 µg/mL | IC50 [6]: 0.028 µg/mL | IC80 [6]: 0.082 µg/mL | IC50 [7]: > 50 µg/mL | IC80 [7]: > 50 µg/mL | IC50 [8]: 15.4 µg/mL | IC80 [8]: > 50 µg/mL | IC50 [9]: 0.004 µg/mL | IC80 [9]: 0.017 µg/mL | IC50 [10]: 0.033 µg/mL | IC80 [10]: 0.127 µg/mL | IC50 [11]: 0.302 µg/mL | IC80 [11]: 2.31 µg/mL | IC50 [12]: 0.008 µg/mL | IC80 [12]: 0.105 µg/mL | IC50 [13]: 0.334 µg/mL | IC80 [13]: 2.35 µg/mL | IC50 [14]: 3.69 µg/mL | IC50 [15]: 0.064 µg/mL | IC80 [15]: 0.304 µg/mL | IC50 [16]: > 50 µg/mL | IC80 [16]: > 50 µg/mL | IC50 [17]: > 50 µg/mL | IC80 [17]: > 50 µg/mL | IC50 [18]: 0.716 µg/mL | IC80 [18]: 5.25 µg/mL | IC50 [19]: 0.026 µg/mL | IC80 [19]: 0.077 µg/mL | IC50 [20]: < 0.001 µg/mL | IC80 [20]: 0.005 µg/mL | IC50 [21]: > 50 µg/mL | IC80 [21]: > 50 µg/mL | IC50 [22]: 0.078 µg/mL | IC80 [22]: 0.291 µg/mL | IC50 [23]: 0.007 µg/mL | IC80 [23]: 0.024 µg/mL | IC50 [24]: < 0.001 µg/mL | IC80 [24]: 0.003 µg/mL | IC50 [25]: > 50 µg/mL | IC80 [25]: > 50 µg/mL | IC50 [26]: > 50 µg/mL | IC80 [26]: > 50 µg/mL | IC50 [27]: 7.6 µg/mL | IC80 [27]: > 50 µg/mL | IC50 [28]: 0.153 µg/mL | IC80 [28]: 4.8 µg/mL | IC50 [29]: 0.024 µg/mL | IC80 [29]: 0.073 µg/mL | IC50 [30]: 0.009 µg/mL | IC80 [30]: 0.027 µg/mL | IC50 [31]: 0.002 µg/mL | IC80 [31]: 0.007 µg/mL | IC50 [32]: 2.6 µg/mL | IC80 [32]: > 50 µg/mL | IC50 [33]: > 50 µg/mL | IC80 [33]: > 50 µg/mL | IC50 [34]: 0.005 µg/mL | IC80 [34]: 0.025 µg/mL

VRC01 (antibody)
IC50 (Titer in TZM.bl cells) [35]: 0.41 µg/mL | IC80 (Titer in TZM.bl cells) [35]: 1.7 µg/mL | IC50 (Titer in TZM.bl cells) [36]: 0.06 µg/mL | IC80 (Titer in TZM.bl cells) [36]: 0.17 µg/mL

10-1074 (antibody)
IC50 [37]: > 50 µg/mL | IC80 [37]: > 50 µg/mL
